# Results reported in US20120178909A1 (MorphoSys, published 2012).
# Molecular target: T1, DV2 NS2B-NS3pro construct, wild type (strain 16681) (WNV strain of the DV serotype 2 (DV2; …, UniProt P29990 1393-1440; P29990 1476-1687)
# T1 construct: range 1393-1440;range 1476-1687
# Experiment: ELISA on coated construct
row,Binder,binding result
1,"AbD05320 (Fab, V domains shown) VH: QVQLVQSGAEVKKPGESLKISCKGSGYSFTNYWISWVRQAPGKGLEWMGIIDPGDSDTNYSPSFQGQVTISADKSISTAYLQWSSLKASDTAMYYCARVNYYNFDYWGQGTLVTVSS VL: DIVLTQSPATLSLSPGERATLSCRASQSVTSNLAWYQQKPGQAPRLLIYGNVSRRATGVPARFSGSGSGTDFTLTISSLEPEDFATYYCQQYGDYPATFGQGTKVEIKR",no binding (tested: 2 µg/ml antibody)
2,"AbD05322 (Fab, V domains shown) VH: QVQLVESGGGLVQPGGSLRLSCAASGFTFSNFWMSWVRQAPGKGLEWVSAISYSSSSTYFADSVKGRFTISRDNSKNTLYLQMNSLRAEDTAVYYCARAYRSYFDIWGQGTLVTVSS VL: DIQMTQSPSSLSASVGDRVTITCRASQSISNWLNWYQQKPGKAPKLLIYNASILQSGVPSRFSGSGSGTDFTLTISSLQPEDFAVYYCQQNYGIPITFGQGTKVEIKR",no binding (tested: 2 µg/ml antibody)
3,"AbD05444 (Fab, V domains shown) VH: QVQLVESGGGLVQPGGSLRLSCAASGFTFSSYWLNWVRQAPGKGLEWVSGISSSSSSTFYADGVKGRFTISRDNSKNTLYLQMNSLRAEDTAVYYCARHSYFDYWGQGTLVTVSS VL: DIQMTQSPSSLSASVGDRVTITCRASQSIVTYLNWYQQKPGKAPKLLIYAASNLQSGVPSRFSGSGSGTDFTLTISSLQPEDFAVYYCQQLYSHPPTFGQGTKVEIKR",no binding (tested: 2 µg/ml antibody)
4,"AbD05446 (Fab, V domains shown) VH: QVQLVESGGGLVQPGGSLRLSCAASGFTFNSNSMSWVRQAPGKGLEWVSGISGIGSNTNYADSVKGRFTISRDNSKNTLYLQMNSLRAEDTAVYYCARVHYYSGVVFDFWGQGTLVTVSS VL: DIELTQPPSVSVAPGQTARISCSGDNLRTQYASWYQQKPGQAPVLVIYNKNKRPSGIPERFSGSNSGNTATLTISGTQAEDEADYYCAAWDSGSIVFGGGTKLTVLG",no binding (tested: 2 µg/ml antibody)
5,"AbD05321 (Fab, V domains shown) VH: QVQLVQSGAEVKKPGSSVKVSCKASGGTFSSHAISWVRQAPGQGLEWMGGIIPIFGMANYAQKFQGRVTITADESTSTAYMELSSLRSEDTAVYYCARYYWKPVLFDFDVWGQGTLVTVSS VL: DIALTQPASVSGSPGQSITISCTGTSSDIGGNNYVSWYQQHPGKAPKVMIYEVSKRPSGVSNRFSGSKSGNTASLTISGLQAEDEADYYCSSYTMTIFVFGGGTKLTVLG",no binding (tested: 2 µg/ml antibody)
6,"AbD05445 (Fab, V domains shown) VH: QVQLVESGGGLVQPGGSLRLSCAASGFTFSNNAMTWVRQAPGKGLEWVSLISYSGSSTYYADSVKGRFTISRDNSKNTLYLQMNSLRAEDTAVYYCARLGGNPLGPFDHWGQGTLVTVSS VL: DIALTQPASVSGAPGQRVTISCTGTSSDIGGYSYVSWYQQHPGKAPKLMIYGVTKRPSGVSNRFSGSKSGNTASLTISGLQAEDEADYYCQSWATHPIRVFGGGTKLTVLG",no binding (tested: 2 µg/ml antibody)
